Experimental data reported in patent US20080311575A1, “Modulation of Muci-Dependent Anti-Estrogen Resistance” (priority 2005, published 2008).
Each block holds one molecule with its values, some of them ahead of it. Residues, ends and D or L forms follow the SMILES beside them. *: point of attachment. Cbz = O=C(OCc1ccccc1)*

What was measured:
[1] = system: ERα-mediated transcription (ERE-tk-Luc); assay: ERE-tk-Luc reporter assay in MCF-7/CsiRNA and MCF-7/MUC1siRNA-A cells; assay type: cell-based, human; settings: MCF-7/CsiRNA versus MCF-7/MUC1siRNA-A cells, 100 nM E2 for 24 h
ERα = assay: Immunoblot of ERα levels in MCF-7 and ZR-75-1 cells; assay type: cell-based, human; settings: MG132 5 mM for 24 h
Procedure: FIGS. 5A-D. MUC1 stabilizes ERα. FIG. 5A. Lysates from the indicated MCF-7 (left) and ZR-75-1 (right) cells were immunoblotted with anti-ERa, anti-MUC1-C and anti-β-actin. WT: wild-type cells. FIGS. 5B and C. The indicated MCF-7 (left) and ZR-75-1 (right) cells were treated with 5 mM MG132 for 24 h. Lysates were subjected to immunoblotting with the indicated antibodies FIG. 5B. […] Lysates were immunoprecipitated with anti-ERα and the precipitates were analyzed by SDS-PAGE and autoradiography. A higher amount of MCF-7/MUC1siRNA cell lysate was used for immunoprecipitation to increase the ERα signals. Lysates not subjected to immunoprecipitation were immunoblotted with anti-β-actin. Intensity of the signals as determined by densitometric scanning is presented as the percentage of ERα remaining over time relative to control at 0 h.
Coimmunoprecipitation and immunoblotting.

breast cancer = settings: patients with high ER and PgR expression levels; cited from earlier work
breast cancer cells = assay: Induction of apoptosis in breast cancer cells; assay type: cell-based, human; settings: both cell types (MCF-7, ZR-75-1); data not shown
[2] = target: T1, estrogen receptor α (ERα), expressed in cells (human, UniProt P03372 1-595); assay: cell-based or functional assay
T1 sequence: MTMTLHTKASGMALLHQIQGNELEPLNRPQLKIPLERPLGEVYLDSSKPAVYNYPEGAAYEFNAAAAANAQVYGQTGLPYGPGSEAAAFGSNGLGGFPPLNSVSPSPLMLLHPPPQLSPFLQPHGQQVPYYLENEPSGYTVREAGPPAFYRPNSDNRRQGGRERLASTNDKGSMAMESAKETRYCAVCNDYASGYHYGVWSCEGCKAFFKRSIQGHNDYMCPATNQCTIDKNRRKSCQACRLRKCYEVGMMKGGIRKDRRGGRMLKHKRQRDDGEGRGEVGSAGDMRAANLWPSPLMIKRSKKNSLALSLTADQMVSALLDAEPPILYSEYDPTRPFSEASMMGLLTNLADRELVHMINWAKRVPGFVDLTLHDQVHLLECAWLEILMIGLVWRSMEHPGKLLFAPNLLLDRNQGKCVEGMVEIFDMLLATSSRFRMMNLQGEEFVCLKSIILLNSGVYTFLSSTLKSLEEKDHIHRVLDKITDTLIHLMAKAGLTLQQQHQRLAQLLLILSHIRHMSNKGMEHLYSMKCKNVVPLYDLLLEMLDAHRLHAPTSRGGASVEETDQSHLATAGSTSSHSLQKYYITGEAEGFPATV

[3] = target: T2, proliferating cell nuclear antigen (PCNA) (human, UniProt P12004 1-261); assay: coimmunoprecipitation: anti-PCNA precipitates of cell lysates, immunoblot with anti-MUC1-C
T2 construct: Precipitated from lysates with anti-PCNA as a control

[4] = target: T3, 35S-labeled ERα(Δ186-281) (Homo sapiens (Human), UniProt P03372 1-595, 35S-labeled in in vitro transcription/translation (TNT) reactions); assay: GST pull-down on glutathione beads, 35S-labeled ERα deletion mutant, phosphoimaging
T3 construct: Internal deletion of residues 186-281, devoid of the DBD
T3 sequence: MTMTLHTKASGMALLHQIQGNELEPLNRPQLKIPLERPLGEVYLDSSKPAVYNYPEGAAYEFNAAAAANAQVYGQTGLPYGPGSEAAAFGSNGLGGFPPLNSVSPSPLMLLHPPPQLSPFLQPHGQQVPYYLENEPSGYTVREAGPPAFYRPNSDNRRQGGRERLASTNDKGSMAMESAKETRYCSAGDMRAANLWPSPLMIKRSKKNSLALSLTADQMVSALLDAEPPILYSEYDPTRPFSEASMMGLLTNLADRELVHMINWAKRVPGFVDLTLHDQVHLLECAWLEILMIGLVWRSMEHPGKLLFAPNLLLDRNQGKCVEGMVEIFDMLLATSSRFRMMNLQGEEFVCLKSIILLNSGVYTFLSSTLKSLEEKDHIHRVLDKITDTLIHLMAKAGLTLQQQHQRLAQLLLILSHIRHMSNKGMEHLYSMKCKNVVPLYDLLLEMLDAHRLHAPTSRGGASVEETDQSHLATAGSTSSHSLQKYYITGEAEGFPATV

35S-labeled ERα(282-595) = target: T4, 35S-labeled ERα(282-595) (Homo sapiens (Human), UniProt P03372 282-595, 35S-labeled in in vitro transcription/translation (TNT) reactions); assay: as above
T4 sequence: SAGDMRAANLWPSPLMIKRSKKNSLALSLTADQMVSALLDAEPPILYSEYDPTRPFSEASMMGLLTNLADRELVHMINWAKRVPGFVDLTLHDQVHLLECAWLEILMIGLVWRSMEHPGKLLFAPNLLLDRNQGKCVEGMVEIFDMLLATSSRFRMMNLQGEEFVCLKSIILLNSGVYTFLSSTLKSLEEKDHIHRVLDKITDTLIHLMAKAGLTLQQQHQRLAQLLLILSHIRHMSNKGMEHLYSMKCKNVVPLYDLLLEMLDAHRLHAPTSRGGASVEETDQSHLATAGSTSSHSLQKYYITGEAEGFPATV

35S-labeled ERα(1-185) = target: T5, 35S-labeled ERα(1-185) (Homo sapiens (Human), UniProt P03372 1-185, 35S-labeled in in vitro transcription/translation (TNT) reactions); assay: as above
T5 construct: Deletion mutant that contains the AF1 domain
T5 sequence: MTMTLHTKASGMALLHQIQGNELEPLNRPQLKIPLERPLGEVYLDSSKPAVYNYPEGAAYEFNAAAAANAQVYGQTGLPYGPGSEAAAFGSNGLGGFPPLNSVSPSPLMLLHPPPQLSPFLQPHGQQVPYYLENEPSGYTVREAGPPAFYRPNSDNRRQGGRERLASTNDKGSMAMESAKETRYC

[5] = target: T6, 35S-labeled full-length ERα(1-595) (Homo sapiens (Human), UniProt P03372 1-595, 35S-labeled in in vitro transcription/translation (TNT) reactions); assay: GST pull-down on glutathione beads, 35S-labeled full-length ERα, phosphoimaging
T6 construct: In vitro translated from pcDNA3.1-ERα; also called 35S-labeled ERα
T6 sequence: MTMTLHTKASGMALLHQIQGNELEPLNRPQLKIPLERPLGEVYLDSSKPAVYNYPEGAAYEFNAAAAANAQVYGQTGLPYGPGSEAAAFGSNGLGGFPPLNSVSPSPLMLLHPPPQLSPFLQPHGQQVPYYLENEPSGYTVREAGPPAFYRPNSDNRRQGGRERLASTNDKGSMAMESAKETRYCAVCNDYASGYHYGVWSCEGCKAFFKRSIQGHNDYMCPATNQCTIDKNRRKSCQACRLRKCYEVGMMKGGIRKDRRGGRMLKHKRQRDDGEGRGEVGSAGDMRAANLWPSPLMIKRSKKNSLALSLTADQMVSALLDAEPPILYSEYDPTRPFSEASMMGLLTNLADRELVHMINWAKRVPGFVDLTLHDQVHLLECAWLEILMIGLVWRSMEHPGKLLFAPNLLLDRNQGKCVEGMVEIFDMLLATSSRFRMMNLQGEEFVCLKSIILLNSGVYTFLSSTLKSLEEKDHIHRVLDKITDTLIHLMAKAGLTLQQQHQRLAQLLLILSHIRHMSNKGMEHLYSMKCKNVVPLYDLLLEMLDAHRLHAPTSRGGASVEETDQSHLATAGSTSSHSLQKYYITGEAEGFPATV
Procedure: To localize the region within MUC1-CD that interacts with ERα, ³⁵S-labeled full length ERα was incubated with deletion mutants of MUC1-CD.

T2 sequence (P12004 whole entry): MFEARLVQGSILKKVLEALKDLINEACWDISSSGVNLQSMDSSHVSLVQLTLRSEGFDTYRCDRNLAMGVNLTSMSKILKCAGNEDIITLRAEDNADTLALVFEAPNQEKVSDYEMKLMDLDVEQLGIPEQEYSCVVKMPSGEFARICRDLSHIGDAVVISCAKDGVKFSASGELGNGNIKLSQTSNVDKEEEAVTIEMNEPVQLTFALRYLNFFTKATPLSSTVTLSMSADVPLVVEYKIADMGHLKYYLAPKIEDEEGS

Molecule: C[C@]12CC[C@@H]3c4ccc(O)cc4CC[C@H]3[C@@H]1CC[C@@H]2O [E2, 17β-estradiol]
MUC1-dependent activation of ERE-tk-Luc [1]: ~5 fold

Molecule: C[C@]12CC[C@@H]3c4ccc(O)cc4C[C@@H](CCCCCCCCC[S+]([O-])CCCC(F)(F)C(F)(F)F)[C@H]3[C@@H]1CC[C@@H]2O (some centres unmarked) [ICI, ICI 182,780]
effect on ERα expression (immunoblot) (ERα): down-regulation of ERα

Molecule: CC(C)C[C@@H](C=O)NC(=O)[C@H](CC(C)C)NC(=O)[C@H](CC(C)C)NC(=O)OCc1ccccc1 [MG132] (Cbz-Leu-Leu-Leu-aldehyde)
effect on ERα expression (immunoblot) (ERα): increases in ERα expression

Molecule: CC/C(=C(\c1ccccc1)c1ccc(OCCN(C)C)cc1)c1ccccc1 [TAM, tamoxifen]
overall response rate (breast cancer): ≤ 70%
induction of apoptosis (breast cancer cells): ≤ 10%

MUC1-dependent activation of ERE-tk-Luc (luciferase reporter, MCF-7/CsiRNA against MCF-7/MUC1siRNA-A cells stimulated with E2) [2]: ~5 fold
binding result [3]: no binding
B1: MUC1 C-terminal subunit (MUC1-C) (other)
chain: SVVVQLTLAFREGTINVHDVETQFNQYKTEAASRYNLTISDVSVSDVPFPFSAQSGAGVPGWGIALLVLVCVLVALAIVYLIALAVCQCRRKNYGQLDIFPARDTYHPMSEYPTYHTHGRYVPPSSTDRSPYEKVSAGNGGSSLSYTNPAVAATSANL
notes: Endogenous ~20-25 kDa MUC1-C in lysates of human breast cancer cells

binding result [4]: no binding
binding result (35S-labeled ERα(282-595)): no binding
binding result (35S-labeled ERα(1-185)): no binding
B2: GST-MUC1-CD(1-72) (other, not shown: a dimerising Fc or GST)
chain: CQCRRKNYGQLDIFPARDTYHPMSEYPTYHTHGRYVPPSSTDRSPYEKVSAGNGGSSLSYTNPAVAATSANL
notes: also called full-length MUC1-CD

binding result [5]: no binding
B3: GST-MUC1-CD with deletion of amino acids 9 to 46 (other, not shown: a dimerising Fc or GST; large carriers; small tags and cut ends)
chain: CQCRRKNYEKVSAGNGGSSLSYTNPAVAATSANL
notes: also called MUC1-CD deletion mutant (amino acids 9 to 46 deleted)
